Assay results from PMC9482650, “Quantitative fragmentomics allow affinity mapping of interactomes” (Nature Communications, 2022).

T1: DFNB31_1, Q9P202
T1 sequence (Q9P202 135-233, limits assumed, looked up): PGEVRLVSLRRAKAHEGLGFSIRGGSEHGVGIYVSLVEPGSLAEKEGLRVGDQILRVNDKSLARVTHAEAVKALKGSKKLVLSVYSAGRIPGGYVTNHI

T2: DLG3_3, Q92796
T2 sequence (Q92796 374-475, limits assumed, looked up): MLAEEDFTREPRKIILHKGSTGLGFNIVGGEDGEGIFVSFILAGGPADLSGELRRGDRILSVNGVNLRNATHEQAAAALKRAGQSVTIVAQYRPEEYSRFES

T3: GRIP1_4, Q9Y3R0
T3 sequence (Q9Y3R0 467-571, limits assumed, looked up): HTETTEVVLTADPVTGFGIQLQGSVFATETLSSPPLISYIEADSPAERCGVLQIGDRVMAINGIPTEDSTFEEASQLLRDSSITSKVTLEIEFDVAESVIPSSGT

T4: LNX2_2, Q8N448
T4 sequence (Q8N448 334-432, limits assumed, looked up): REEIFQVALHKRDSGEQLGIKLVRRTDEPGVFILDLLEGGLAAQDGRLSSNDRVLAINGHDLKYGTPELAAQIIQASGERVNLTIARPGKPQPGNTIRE

T5: MPP2, Q14168
T5 sequence (Q14168 180-250, limits assumed, looked up): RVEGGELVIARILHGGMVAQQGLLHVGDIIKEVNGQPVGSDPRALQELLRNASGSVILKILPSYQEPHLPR

T6: PARD3B_1, Q8TEW8
T6 sequence (Q8TEW8 196-299, limits assumed, looked up): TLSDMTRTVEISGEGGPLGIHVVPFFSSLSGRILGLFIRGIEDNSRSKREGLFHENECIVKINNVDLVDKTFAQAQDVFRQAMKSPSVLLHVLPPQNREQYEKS

T7: PDZD7_3, Q9H5P4
T7 sequence (Q9H5P4 857-944, limits assumed, looked up): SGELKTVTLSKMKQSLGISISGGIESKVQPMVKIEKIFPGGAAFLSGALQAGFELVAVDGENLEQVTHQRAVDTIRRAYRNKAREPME

T8: PTPN13_1, Q12923
T8 sequence (Q12923 1088-1188, limits assumed, looked up): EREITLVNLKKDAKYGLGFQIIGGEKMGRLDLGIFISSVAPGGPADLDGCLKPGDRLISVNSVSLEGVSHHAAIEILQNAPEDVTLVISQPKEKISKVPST

T9: SHANK1, Q9Y566
T9 sequence (Q9Y566 658-767, limits assumed, looked up): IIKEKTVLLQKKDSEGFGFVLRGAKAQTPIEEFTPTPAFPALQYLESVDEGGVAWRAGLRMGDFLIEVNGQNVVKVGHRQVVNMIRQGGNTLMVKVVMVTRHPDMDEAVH

T10: SIPA1L2, Q9P2F8
T10 sequence (Q9P2F8 945-1036, limits assumed, looked up): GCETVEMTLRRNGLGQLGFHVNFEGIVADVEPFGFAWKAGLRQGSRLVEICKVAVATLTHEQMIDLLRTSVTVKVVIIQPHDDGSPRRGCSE

T11: SNTG2, Q9NY99
T11 sequence (Q9NY99 68-166, limits assumed, looked up): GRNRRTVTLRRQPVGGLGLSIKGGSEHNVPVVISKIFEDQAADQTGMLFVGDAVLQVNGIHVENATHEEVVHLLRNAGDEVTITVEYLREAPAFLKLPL


Experiments:
Experiment in all cases: holdup assay
Parameters in all cases: key: below the threshold = too weak to quantify, mostly under pKd 3.1 to 4
Conditions in all cases: plain residues with an end cap or a label only (N-terminal biotin on a linker: ado-ado)
ARHGEF12, Q9NZN5-2 = target: ARHGEF12, Q9NZN5-2
CASK, O14936 = target: CASK, O14936
DFNB31_1, Q9P202 = target: T1, DFNB31_1, Q9P202
DLG3_3, Q92796 = target: T2, DLG3_3, Q92796
FRMPD4, Q14CM0 = target: FRMPD4, Q14CM0
GRASP, Q7Z6J2 = target: GRASP, Q7Z6J2
GRID2IP_2, A4D2P6 = target: GRID2IP_2, A4D2P6
GRIP1_4, Q9Y3R0 = target: T3, GRIP1_4, Q9Y3R0
IL16_1, Q14005 = target: IL16_1, Q14005
Inadl_9, Q8NI35 = target: Inadl_9, Q8NI35
LDB3, O75112 = target: LDB3, O75112
LNX1_1, Q8TBB1 = target: LNX1_1, Q8TBB1
LNX2_2, Q8N448 = target: T4, LNX2_2, Q8N448
MAGI1_1, Q96QZ7 = target: MAGI1_1, Q96QZ7
MAGI2_6, Q86UL8 = target: MAGI2_6, Q86UL8
MPP2, Q14168 = target: T5, MPP2, Q14168
NHERF2_2, Q15599 = target: NHERF2_2, Q15599
NHERF4_1, Q86UT5-2 = target: NHERF4_1, Q86UT5-2
NHERF4_2, Q86UT5 = target: NHERF4_2, Q86UT5
PARD3B_1, Q8TEW8 = target: T6, PARD3B_1, Q8TEW8
PDZD7_3, Q9H5P4 = target: T7, PDZD7_3, Q9H5P4
PTPN13_1, Q12923 = target: T8, PTPN13_1, Q12923
SCRIB_3, Q14160 = target: SCRIB_3, Q14160
SHANK1, Q9Y566 = target: T9, SHANK1, Q9Y566
SIPA1L2, Q9P2F8 = target: T10, SIPA1L2, Q9P2F8
SNTG2, Q9NY99 = target: T11, SNTG2, Q9NY99

Sequence of NHERF2_2, Q15599 (Q15599 142-238): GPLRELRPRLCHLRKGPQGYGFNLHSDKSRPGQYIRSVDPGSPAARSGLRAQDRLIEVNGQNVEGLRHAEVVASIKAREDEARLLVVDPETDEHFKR
Sequence of GRID2IP_2, A4D2P6 (A4D2P6 272-370): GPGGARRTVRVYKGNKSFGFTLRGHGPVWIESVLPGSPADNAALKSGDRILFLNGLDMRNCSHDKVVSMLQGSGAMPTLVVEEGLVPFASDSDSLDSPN
Sequence of FRMPD4, Q14CM0 (Q14CM0 67-160): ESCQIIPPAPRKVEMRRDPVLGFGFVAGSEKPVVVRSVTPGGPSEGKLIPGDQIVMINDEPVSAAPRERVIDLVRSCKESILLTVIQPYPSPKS
Sequence of GRASP, Q7Z6J2 (Q7Z6J2 96-193): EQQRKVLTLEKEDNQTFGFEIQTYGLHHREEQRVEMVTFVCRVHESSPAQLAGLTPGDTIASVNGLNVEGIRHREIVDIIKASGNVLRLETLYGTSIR
Sequence of ARHGEF12, Q9NZN5-2 (Q9NZN5 other isoform, or with tags, fused parts or gaps): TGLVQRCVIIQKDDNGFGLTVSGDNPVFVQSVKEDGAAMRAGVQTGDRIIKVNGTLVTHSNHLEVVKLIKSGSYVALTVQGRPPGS
Sequence of Inadl_9, Q8NI35 (Q8NI35 1530-1615): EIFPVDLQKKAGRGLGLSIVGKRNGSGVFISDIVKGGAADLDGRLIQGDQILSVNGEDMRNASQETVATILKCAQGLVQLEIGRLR
Sequence of LDB3, O75112 (O75112 1-94): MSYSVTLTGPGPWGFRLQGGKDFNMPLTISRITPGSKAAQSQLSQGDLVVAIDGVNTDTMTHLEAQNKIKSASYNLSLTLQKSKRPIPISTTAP
Sequence of NHERF4_1, Q86UT5-2 (Q86UT5 other isoform, or with tags, fused parts or gaps): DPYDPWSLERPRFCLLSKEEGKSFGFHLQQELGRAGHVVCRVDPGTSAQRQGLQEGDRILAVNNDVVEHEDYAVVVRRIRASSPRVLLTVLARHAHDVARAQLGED
Sequence of CASK, O14936 (O14936 487-570): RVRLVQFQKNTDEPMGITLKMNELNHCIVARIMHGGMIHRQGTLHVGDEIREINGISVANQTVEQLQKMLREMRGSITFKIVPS
Sequence of SCRIB_3, Q14160 (Q14160 999-1103): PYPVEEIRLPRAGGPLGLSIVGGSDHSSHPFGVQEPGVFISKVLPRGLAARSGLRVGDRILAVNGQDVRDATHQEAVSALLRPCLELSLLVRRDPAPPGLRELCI
Sequence of IL16_1, Q14005 (Q14005 210-306): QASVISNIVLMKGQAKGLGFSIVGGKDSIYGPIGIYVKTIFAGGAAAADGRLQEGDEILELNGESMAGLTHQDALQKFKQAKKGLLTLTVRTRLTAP
Sequence of MAGI1_1, Q96QZ7 (Q96QZ7 1-106): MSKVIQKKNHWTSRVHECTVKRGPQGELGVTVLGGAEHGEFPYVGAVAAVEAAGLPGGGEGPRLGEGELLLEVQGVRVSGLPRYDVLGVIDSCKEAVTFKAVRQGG
Sequence of LNX1_1, Q8TBB1 (Q8TBB1 261-371): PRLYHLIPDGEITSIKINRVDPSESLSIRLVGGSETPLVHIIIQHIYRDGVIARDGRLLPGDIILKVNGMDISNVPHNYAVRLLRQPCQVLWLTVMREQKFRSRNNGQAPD
Sequence of NHERF4_2, Q86UT5 (Q86UT5 220-308): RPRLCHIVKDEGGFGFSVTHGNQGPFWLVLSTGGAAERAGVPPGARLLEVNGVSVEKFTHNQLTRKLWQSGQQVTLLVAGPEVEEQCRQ
Sequence of MAGI2_6, Q86UL8 (Q86UL8 1141-1229): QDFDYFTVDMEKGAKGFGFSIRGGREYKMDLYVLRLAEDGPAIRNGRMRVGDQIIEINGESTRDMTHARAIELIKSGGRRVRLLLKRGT

Binder | pKd (ARHGEF12, Q9NZN5-2) | pKd (CASK, O14936) | pKd (DFNB31_1, Q9P202) | pKd (DLG3_3, Q92796) | pKd (FRMPD4, Q14CM0) | pKd (GRASP, Q7Z6J2) | pKd (GRID2IP_2, A4D2P6) | pKd (GRIP1_4, Q9Y3R0) | pKd (IL16_1, Q14005) | pKd (Inadl_9, Q8NI35) | pKd (LDB3, O75112) | pKd (LNX1_1, Q8TBB1) | pKd (LNX2_2, Q8N448) | pKd (MAGI1_1, Q96QZ7) | pKd (MAGI2_6, Q86UL8) | pKd (MPP2, Q14168) | pKd (NHERF2_2, Q15599) | pKd (NHERF4_1, Q86UT5-2) | pKd (NHERF4_2, Q86UT5) | pKd (PARD3B_1, Q8TEW8) | other results
YRLAQESGLV [ABCC6, O95255] | below the threshold | below the threshold | below the threshold | below the threshold | below the threshold | below the threshold | below the threshold | below the threshold | below the threshold | below the threshold | below the threshold | below the threshold | below the threshold | below the threshold | below the threshold | below the threshold | below the threshold | 3.51 | below the threshold | 4.13 | pKd (PDZD7_3, Q9H5P4): 4.01; pKd (PTPN13_1, Q12923): below the threshold; pKd (SCRIB_3, Q14160): below the threshold; pKd (SHANK1, Q9Y566): below the threshold; pKd (SIPA1L2, Q9P2F8): below the threshold; pKd (SNTG2, Q9NY99): 3.61
RKPKPSSSCC [RAB9A, P51151] | 4.27 | below the threshold | below the threshold | below the threshold | below the threshold | below the threshold | 3.54 | below the threshold | below the threshold | below the threshold | 3.51 | below the threshold | below the threshold | below the threshold | below the threshold | below the threshold | below the threshold | 3.81 | below the threshold | below the threshold | pKd (PDZD7_3, Q9H5P4): 3.76; pKd (PTPN13_1, Q12923): below the threshold; pKd (SCRIB_3, Q14160): below the threshold; pKd (SHANK1, Q9Y566): below the threshold; pKd (SIPA1L2, Q9P2F8): below the threshold; pKd (SNTG2, Q9NY99): below the threshold
ETQVTAETVI [TMEM225B, P0DP42] | 3.84 | below the threshold | 4.59 | below the threshold | below the threshold | below the threshold | below the threshold | below the threshold | below the threshold | below the threshold | below the threshold | 3.59 | 4.46 | below the threshold | below the threshold | below the threshold | below the threshold | below the threshold | below the threshold | 4.18 | pKd (PDZD7_3, Q9H5P4): 5.23; pKd (PTPN13_1, Q12923): below the threshold; pKd (SCRIB_3, Q14160): 4.34; pKd (SHANK1, Q9Y566): below the threshold; pKd (SIPA1L2, Q9P2F8): below the threshold; pKd (SNTG2, Q9NY99): 4.15
LKVPPEERLI [CRB2, Q5IJ48] | below the threshold | below the threshold | below the threshold | below the threshold | below the threshold | below the threshold | below the threshold | below the threshold | below the threshold | below the threshold | below the threshold | below the threshold | 3.72 | below the threshold | below the threshold | below the threshold | below the threshold | below the threshold | below the threshold | 3.88 | pKd (PDZD7_3, Q9H5P4): below the threshold; pKd (PTPN13_1, Q12923): below the threshold; pKd (SCRIB_3, Q14160): 3.75; pKd (SHANK1, Q9Y566): below the threshold; pKd (SIPA1L2, Q9P2F8): below the threshold; pKd (SNTG2, Q9NY99): below the threshold
